# Publication PMC7439511
# Target: GST-PHD^RACK7 (human)
# Experiment: MST
substance,measurement,value
H3.3G34R peptide (amino acids 22 to 44) (from UniProt P84243 23-45),Kd,6 µM
